For test [1], the target named is T1, IL-4 receptor protein immobilised on carboxymethyl dextran chip (SPR) (Homo sapiens (Human), UniProt P24394 26-232).
T1 construct: Soluble protein coupled to the chip by EDC/NHS
T1 sequence: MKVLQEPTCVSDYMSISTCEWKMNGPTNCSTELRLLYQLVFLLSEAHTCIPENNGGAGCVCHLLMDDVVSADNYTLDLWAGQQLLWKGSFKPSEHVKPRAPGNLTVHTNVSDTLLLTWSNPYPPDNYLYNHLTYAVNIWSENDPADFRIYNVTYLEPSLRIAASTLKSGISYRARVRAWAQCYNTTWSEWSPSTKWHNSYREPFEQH
Description: SPR, IL-4 receptor immobilised. As for the experimental part:
(§1) Here, the right channel was used as a reference channel. In the two channels, left channel and right channel, 1M ethanolamine (pH 8.5) solution was allowed to flow over the unreacted surface for 7 min for blocking, so as to reduce non-specific adsorption thereof. All test procedures were conducted at a temperature of 25° C. and the flow rate was 25 ul/min.

In test [2] the target is T1, IL-4 receptor protein immobilised on …. Description: SPR, IL-4 receptor immobilised, equilibrium fit. How it is done: as §1
The buffer (20 mM Tris-HCl pH 8.0, 150 mM NaCl, 180 mM Histidine, 62.5 ug/ml BSA, 0.005% Tween 20) was used through filtering and degassing. […] For regeneration, 2 M NaCl was allowed to flow over for 1 h to wash the proteins remaining without dissociation.
In the binding graph, the RU value expressing the amount of bound protein was measured by subtracting the blank (buffer) value and reference channel (right channel) value, using Scrubber software. The KD value was obtained from the binding RU (Req) values measured at the respective concentrations using KaleidaGraph software.

B1: FTL-AP1_AP1: fusion polypeptide in which AP1S was fused to N-terminal of FTL_GG-AP1S (designed binder)
chain: MRKRLDRNGGGSGMSSQIRQNYSTDVEAAVNSLVNLYLQASYTYLSLGFYFDRDDVALEGVSHFFRELAEEKREGYERLLKMQNQRGGRALFQDIKKPAEDEWGKTPDAMKAAMALEKKLNQALLDLHALGSARTDPHLCDFLETHFLDEEVKLIKKMGDHLTNLHRGSRKRLDRNGGPEAGLGEYLFERLTLKHD
modifications: One monomer is given; it assembles into a 24-mer ferritin cage.
notes: Expressed from pET28a(+) via NdeI/XhoI and purified on Ni-NTA (His tag); also called ferritin having two inserted AP1 peptides; not shown: His tag from the pET28a(+) vector (Ni-NTA purification)
By Kd is commonly meant the constant that tells how readily two partners part at equilibrium. High values mean a looser complex, low ones a tighter complex. By koff is commonly meant a measure of how fast the partners let go of each other. As usually defined, the kon is the rate constant with which the complex forms. A high value points to fast association. In the case of B1, in test [1], binding was put at a Kd of 0.0458 nM, the “fold enhancement of binding affinity against FTL-AP1” value is 10 times, the dissociation rate constant (koff) amounted to 3.8e-05 s⁻¹ and the kon worked out at 826000 M⁻¹ s⁻¹.

B2: FTL-GG-AP1S: ferritin having AP1S inserted in GG cassette (human ferritin light chain, fourth loop) (designed binder)
chain: MSSQIRQNYSTDVEAAVNSLVNLYLQASYTYLSLGFYFDRDDVALEGVSHFFRELAEEKREGYERLLKMQNQRGGRALFQDIKKPAEDEWGKTPDAMKAAMALEKKLNQALLDLHALGSARTDPHLCDFLETHFLDEEVKLIKKMGDHLTNLHRGSRKRLDRNGGPEAGLGEYLFERLTLKHD
modifications: One monomer is given; it assembles into a 24-mer ferritin cage.
notes: It forms a ferritin-like cage (24-mer); also called FTL-AP1; not shown: His tag from the pET28a(+) vector (Ni-NTA purification, anti-His probe)
B2: in test [1], the Kd was 0.443 nM, the off-rate (koff) came to 0.00125 s⁻¹ and the association rate constant (kon) came to 1.22e+06 M⁻¹ s⁻¹. The molecule also gave a Kd in test [2] of 1.19 nM.

B3: FTL-GP-AP1S: ferritin having AP1S inserted in GP cassette (human ferritin light chain, fourth loop) (designed binder)
chain: MSSQIRQNYSTDVEAAVNSLVNLYLQASYTYLSLGFYFDRDDVALEGVSHFFRELAEEKREGYERLLKMQNQRGGRALFQDIKKPAEDEWGKTPDAMKAAMALEKKLNQALLDLHALGSARTDPHLCDFLETHFLDEEVKLIKKMGDHLTNLHRLGSRKRLDRNGPEAGLGEYLFERLTLKHD
modifications: One monomer is given; it assembles into a 24-mer ferritin cage.
notes: pET28a(+) expression with Ni-NTA purification (His tag); Cage-forming; not shown: His tag from the pET28a(+) vector (Ni-NTA purification, anti-His probe)
B3: binding in test [2] was characterised by a dissociation constant (Kd) of 4.29 nM.

B4: FTL-GG-AP1L: ferritin having AP1L inserted in GG cassette (human ferritin light chain, fourth loop) (designed binder)
chain: MSSQIRQNYSTDVEAAVNSLVNLYLQASYTYLSLGFYFDRDDVALEGVSHFFRELAEEKREGYERLLKMQNQRGGRALFQDIKKPAEDEWGKTPDAMKAAMALEKKLNQALLDLHALGSARTDPHLCDFLETHFLDEEVKLIKKMGDHLTNLHRGSCRKRLDRNCGGPEAGLGEYLFERLTLKHD
modifications: One monomer is given; it assembles into a 24-mer ferritin cage.
notes: pET28a(+) expression with Ni-NTA purification (His tag); Cage-forming; also called 157cysAP1-PBNC; not shown: His tag from the pET28a(+) vector (Ni-NTA purification, anti-His probe)
As for B4, the affinity in test [2], expressed as Kd, was 25.9 nM.

B5: FTL-GP-AP1L: ferritin having AP1L inserted in GP cassette (human ferritin light chain, fourth loop) (designed binder)
chain: MSSQIRQNYSTDVEAAVNSLVNLYLQASYTYLSLGFYFDRDDVALEGVSHFFRELAEEKREGYERLLKMQNQRGGRALFQDIKKPAEDEWGKTPDAMKAAMALEKKLNQALLDLHALGSARTDPHLCDFLETHFLDEEVKLIKKMGDHLTNLHRLGSCRKRLDRNCGPEAGLGEYLFERLTLKHD
modifications: One monomer is given; it assembles into a 24-mer ferritin cage.
notes: as for B3
Regarding B5, the Kd in test [2] worked out at 9.9 nM.
